Test results published in publication PMC2756588.

Assays:
Assay in all cases: SPOT array
Abp1, P15891 = target: T1, Abp1, P15891; conditions: median of control spots 935
T1 sequence (P15891 535-592, looked up): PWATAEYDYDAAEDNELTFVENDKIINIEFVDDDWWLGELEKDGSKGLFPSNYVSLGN

Bbc1, P47068 = target: T2, Bbc1, P47068; conditions: median of control spots 796
T2 sequence (P47068 1-78, looked up): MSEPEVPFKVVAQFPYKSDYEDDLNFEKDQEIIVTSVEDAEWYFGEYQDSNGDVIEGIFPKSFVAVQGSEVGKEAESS

Bem1-1, P29366 = conditions: median of control spots 4282
Bem1-2, P29366 = conditions: median of control spots 4347
Boi1, P38041 = target: T3, Boi1, P38041; conditions: median of control spots 1162
T3 sequence (P38041 1-86, looked up): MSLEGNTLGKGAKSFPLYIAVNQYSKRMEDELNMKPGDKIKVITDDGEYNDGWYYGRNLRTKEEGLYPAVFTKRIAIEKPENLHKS

Boi2, P39969 = target: T4, Boi2, P39969; conditions: median of control spots 1161
T4 sequence (P39969 32-116, looked up): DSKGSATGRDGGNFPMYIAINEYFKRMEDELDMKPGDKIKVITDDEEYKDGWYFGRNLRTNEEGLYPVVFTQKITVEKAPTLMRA

Bud14, P27637 = target: T5, Bud14, P27637; conditions: median of control spots 956
T5 sequence (P27637 247-328, looked up): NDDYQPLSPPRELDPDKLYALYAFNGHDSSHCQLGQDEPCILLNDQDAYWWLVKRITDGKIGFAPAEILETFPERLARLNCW

Bzz1-1, P38822 = target: T6, Bzz1-1, P38822; conditions: median of control spots 4446
T6 sequence (P38822 478-572, looked up): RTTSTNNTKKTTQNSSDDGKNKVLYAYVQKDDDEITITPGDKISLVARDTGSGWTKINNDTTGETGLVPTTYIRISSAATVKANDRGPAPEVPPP

Bzz1-2, P38822 = target: T7, Bzz1-2, P38822; conditions: median of control spots 4538
T7 sequence (P38822 568-633, looked up): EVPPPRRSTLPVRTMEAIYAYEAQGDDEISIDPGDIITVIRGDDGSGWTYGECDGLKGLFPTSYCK

Cdc25, P04821 = target: T8, Cdc25, P04821; conditions: median of control spots 969
T8 sequence (P04821 50-136, looked up): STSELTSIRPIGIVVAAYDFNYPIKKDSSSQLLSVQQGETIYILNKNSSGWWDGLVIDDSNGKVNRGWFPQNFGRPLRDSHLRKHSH

Cyk3, Q07533 = target: T9, Cyk3, Q07533; conditions: median of control spots 1451
T9 sequence (Q07533 1-83, looked up): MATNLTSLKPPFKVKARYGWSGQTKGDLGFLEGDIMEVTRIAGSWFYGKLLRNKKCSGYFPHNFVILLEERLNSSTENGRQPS

Fus1, P11710 = target: T10, Fus1, P11710; conditions: median of control spots 1200
T10 sequence (P11710 432-512, looked up): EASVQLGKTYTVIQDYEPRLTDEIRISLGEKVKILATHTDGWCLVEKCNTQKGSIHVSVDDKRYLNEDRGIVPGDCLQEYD

GST = conditions: median of control spots 978
Hof1, Q05080 = target: T11, Hof1, Q05080; conditions: median of control spots 4086
T11 sequence (Q05080 590-669, looked up): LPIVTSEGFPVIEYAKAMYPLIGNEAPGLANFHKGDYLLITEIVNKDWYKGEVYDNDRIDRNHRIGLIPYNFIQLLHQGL

Hse1, P38753 = target: T12, Hse1, P38753; conditions: median of control spots 1727
T12 sequence (P38753 208-285, looked up): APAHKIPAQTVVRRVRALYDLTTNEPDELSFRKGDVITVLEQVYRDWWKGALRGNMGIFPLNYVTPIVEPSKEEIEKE

Lsb1, P53281 = target: T13, Lsb1, P53281; conditions: median of control spots 388
T13 sequence (P53281 45-122, looked up): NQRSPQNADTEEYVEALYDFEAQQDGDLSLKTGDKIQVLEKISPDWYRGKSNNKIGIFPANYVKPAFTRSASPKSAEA

Lsb3, P43603 = target: T14, Lsb3, P43603; conditions: median of control spots 406
T14 sequence (P43603 385-451, looked up): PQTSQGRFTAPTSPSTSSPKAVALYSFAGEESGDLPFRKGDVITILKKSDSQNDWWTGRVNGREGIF

Lsb4, P32793 = target: T15, Lsb4, P32793; conditions: median of control spots 397
T15 sequence (P32793 402-468, looked up): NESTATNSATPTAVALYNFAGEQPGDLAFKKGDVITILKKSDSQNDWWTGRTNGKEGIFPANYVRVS

Myo3, P36006 = conditions: median of control spots 468
Myo5, Q04439 = target: T16, Myo5, Q04439; conditions: median of control spots 471
T16 sequence (Q04439 1072-1160, looked up): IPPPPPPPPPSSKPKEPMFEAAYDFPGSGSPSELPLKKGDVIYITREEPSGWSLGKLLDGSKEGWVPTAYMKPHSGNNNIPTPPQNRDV

Nbp2, Q12163 = target: T17, Nbp2, Q12163; conditions: median of control spots 357
T17 sequence (Q12163 103-180, looked up): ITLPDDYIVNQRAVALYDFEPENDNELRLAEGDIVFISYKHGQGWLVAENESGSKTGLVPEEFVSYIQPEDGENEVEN

Pex13, P80667 = target: T18, Pex13, P80667; conditions: median of control spots 1341
T18 sequence (P80667 295-386, looked up): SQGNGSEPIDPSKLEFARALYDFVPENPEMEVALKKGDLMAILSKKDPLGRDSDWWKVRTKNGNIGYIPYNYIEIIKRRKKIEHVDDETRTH

Pin3, Q06449 = target: T19, Pin3, Q06449; conditions: median of control spots 2171
T19 sequence (Q06449 53-122, looked up): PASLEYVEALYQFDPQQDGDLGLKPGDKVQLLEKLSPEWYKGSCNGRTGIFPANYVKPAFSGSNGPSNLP

Rvs167, P39743 = conditions: median of control spots 2707
Sho1, P40073 = conditions: median of control spots 1148
Sla1-2, P32790 = target: T20, Sla1-2, P32790; conditions: median of control spots 712
T20 sequence (P32790 60-140, looked up): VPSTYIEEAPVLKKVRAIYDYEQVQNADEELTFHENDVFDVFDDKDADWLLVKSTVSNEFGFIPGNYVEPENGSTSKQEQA

Sla1-3, P32790 = target: T21, Sla1-3, P32790; conditions: median of control spots 5475
T21 sequence (P32790 344-424, looked up): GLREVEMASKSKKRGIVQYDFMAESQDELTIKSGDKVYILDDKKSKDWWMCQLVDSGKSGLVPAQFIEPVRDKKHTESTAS

Sequence of Bem1-2, P29366 (P29366 139-227): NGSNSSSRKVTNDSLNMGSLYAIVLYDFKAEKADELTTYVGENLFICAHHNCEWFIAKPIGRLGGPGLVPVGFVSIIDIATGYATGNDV
Sequence of Rvs167, P39743 (P39743 419-482): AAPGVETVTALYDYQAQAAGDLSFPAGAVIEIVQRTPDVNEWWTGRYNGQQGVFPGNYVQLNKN
Sequence of Bem1-1, P29366 (P29366 55-141): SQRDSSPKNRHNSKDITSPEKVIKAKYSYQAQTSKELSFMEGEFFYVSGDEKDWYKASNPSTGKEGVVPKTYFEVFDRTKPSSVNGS
Sequence of Sho1, P40073 (P40073 287-367): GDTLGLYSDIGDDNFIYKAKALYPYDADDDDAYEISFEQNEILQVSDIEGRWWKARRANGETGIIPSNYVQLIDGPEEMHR

B1: unnamed (peptide)
chain: RPVPPPPPMRTTTEG
SPOT intensity (Abp1, P15891): 0
SPOT intensity (Bbc1, P47068): 0
SPOT intensity (Bem1-1, P29366): 3
SPOT intensity (Bem1-2, P29366): 6
SPOT intensity (Boi1, P38041): 0
SPOT intensity (Boi2, P39969): 0
SPOT intensity (Bud14, P27637): 0
SPOT intensity (Bzz1-1, P38822): 19
SPOT intensity (Bzz1-2, P38822): 664
SPOT intensity (Cdc25, P04821): 0
SPOT intensity (Cyk3, Q07533): 0
SPOT intensity (Fus1, P11710): 1
SPOT intensity (GST): 0
SPOT intensity (Hof1, Q05080): 23
SPOT intensity (Hse1, P38753): 9
SPOT intensity (Lsb1, P53281): 0
SPOT intensity (Lsb3, P43603): 0
SPOT intensity (Lsb4, P32793): 0
SPOT intensity (Myo3, P36006): 0
SPOT intensity (Myo5, Q04439): 2
SPOT intensity (Nbp2, Q12163): 0
SPOT intensity (Pex13, P80667): 185
SPOT intensity (Pin3, Q06449): 59
SPOT intensity (Rvs167, P39743): 7510
SPOT intensity (Sho1, P40073): 2
SPOT intensity (Sla1-2, P32790): 0
SPOT intensity (Sla1-3, P32790): 2

B2: unnamed (peptide)
chain: RNNRPVPPPPPMRTT
SPOT intensity (Abp1, P15891): 0
SPOT intensity (Bbc1, P47068): 0
SPOT intensity (Bem1-1, P29366): 5
SPOT intensity (Bem1-2, P29366): 0
SPOT intensity (Boi1, P38041): 0
SPOT intensity (Boi2, P39969): 1
SPOT intensity (Bud14, P27637): 0
SPOT intensity (Bzz1-1, P38822): 6
SPOT intensity (Bzz1-2, P38822): 233
SPOT intensity (Cdc25, P04821): 0
SPOT intensity (Cyk3, Q07533): 2
SPOT intensity (Fus1, P11710): 0
SPOT intensity (GST): 0
SPOT intensity (Hof1, Q05080): 0
SPOT intensity (Hse1, P38753): 7
SPOT intensity (Lsb1, P53281): 0
SPOT intensity (Lsb3, P43603): 0
SPOT intensity (Lsb4, P32793): 0
SPOT intensity (Myo3, P36006): 0
SPOT intensity (Myo5, Q04439): 1
SPOT intensity (Nbp2, Q12163): 0
SPOT intensity (Pex13, P80667): 201
SPOT intensity (Pin3, Q06449): 31
SPOT intensity (Rvs167, P39743): 1870
SPOT intensity (Sho1, P40073): 0
SPOT intensity (Sla1-2, P32790): 1
SPOT intensity (Sla1-3, P32790): 0

B3: unnamed (peptide)
chain: ATNVPVAPPPPPASL
SPOT intensity (Abp1, P15891): 0
SPOT intensity (Bbc1, P47068): 0
SPOT intensity (Bem1-1, P29366): 4
SPOT intensity (Bem1-2, P29366): 0
SPOT intensity (Boi1, P38041): 0
SPOT intensity (Boi2, P39969): 0
SPOT intensity (Bud14, P27637): 0
SPOT intensity (Bzz1-1, P38822): 1
SPOT intensity (Bzz1-2, P38822): 3
SPOT intensity (Cdc25, P04821): 0
SPOT intensity (Cyk3, Q07533): 0
SPOT intensity (Fus1, P11710): 0
SPOT intensity (GST): 0
SPOT intensity (Hof1, Q05080): 0
SPOT intensity (Hse1, P38753): 0
SPOT intensity (Lsb1, P53281): 0
SPOT intensity (Lsb3, P43603): 0
SPOT intensity (Lsb4, P32793): 0
SPOT intensity (Myo3, P36006): 0
SPOT intensity (Myo5, Q04439): 0
SPOT intensity (Nbp2, Q12163): 0
SPOT intensity (Pex13, P80667): 0
SPOT intensity (Pin3, Q06449): 0
SPOT intensity (Rvs167, P39743): 0
SPOT intensity (Sho1, P40073): 0
SPOT intensity (Sla1-2, P32790): 0
SPOT intensity (Sla1-3, P32790): 0
